Assay results: patent publication US20060084113A1 (published 2006)

Legend:
[1] = target: anhydro-trypsin (agarose-immobilized, Pierce) (UniProt P00760); assay: phage on agarose beads, pH 2.2 elution, dot blot
[2] = target: streptavidin (agarose-immobilized, Sigma) (UniProt P22629); assay: phage on agarose beads, pH 2.2 elution, dot blot
[3] = target: anhydro-trypsin (agarose-immobilized, Pierce) (UniProt P00760); assay: phage titer after incubation with agarose beads
[4] = target: streptavidin (agarose-immobilized, Sigma) (UniProt P22629); assay: phage titer after incubation with agarose beads
[5] = target: trypsin (immobilized active trypsin, Pierce; or free trypsin) (UniProt P00760); assay: phage on trypsin beads, pH 2.2 elution
[6] = target: trypsin (immobilized active trypsin, Pierce; or free trypsin) (UniProt P00760); assay: phage on beads, acid elution, pfu
[7] = target: human neutrophil elastase (HNE), immobilized on agarose beads (human) (UniProt P08246); assay: phage on beads, acid elution, pfu
[8] = target: normal rabbit serum / IgG purified from normal rabbit serum; assay: phage titer after normal rabbit IgG and protein A-agarose
[9] = target: anhydro-trypsin (agarose-immobilized, Pierce) (UniProt P00760); assay: phage on beads, acid elution, pfu; experiment 2
Protein A-agarose beads = Protein A-agarose beads (UniProt P38507); assay: phage titer after protein A-agarose
[10] = target: trypsin (immobilized active trypsin, Pierce; or free trypsin) (UniProt P00760); assay: phage on beads, elution, pfu
[11] = target: anhydro-trypsin (agarose-immobilized, Pierce) (UniProt P00760); assay: phage on beads, elution, pfu
[12] = target: normal rabbit serum / IgG purified from normal rabbit serum; assay: phage titer after normal rabbit IgG
[13] = target: anhydro-trypsin (agarose-immobilized, Pierce) (UniProt P00760); assay: phage on beads, acid elution, pfu; experiment 1
[14] = target: T1, human neutrophil elastase (HNE), immobilized on agarose beads (human, UniProt P08246 30-247, limits assumed); assay: phage on HNE beads, stepwise pH elution
T1 construct: also called HNE beads; leukocyte elastase
T1 sequence (looked up): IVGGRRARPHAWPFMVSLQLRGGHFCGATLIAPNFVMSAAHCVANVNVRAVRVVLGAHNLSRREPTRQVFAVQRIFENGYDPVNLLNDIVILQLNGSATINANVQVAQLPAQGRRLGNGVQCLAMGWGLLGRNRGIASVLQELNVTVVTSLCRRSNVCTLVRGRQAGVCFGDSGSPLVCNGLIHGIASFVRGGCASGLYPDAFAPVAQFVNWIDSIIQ

[15] = target: T1, human neutrophil elastase (HNE), …; assay: phage on HNE beads, abbreviated pH elution

Chain of trypsin (immobilized active trypsin, Pierce; or free trypsin) (P00760 24-246): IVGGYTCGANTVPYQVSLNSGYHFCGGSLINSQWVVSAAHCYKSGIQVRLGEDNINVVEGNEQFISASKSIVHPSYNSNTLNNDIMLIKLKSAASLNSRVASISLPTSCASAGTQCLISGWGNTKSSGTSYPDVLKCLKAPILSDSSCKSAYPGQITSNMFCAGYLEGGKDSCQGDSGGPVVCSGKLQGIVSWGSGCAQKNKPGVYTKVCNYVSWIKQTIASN
Chain of streptavidin (agarose-immobilized, Sigma) (P22629 37-163 limits assumed): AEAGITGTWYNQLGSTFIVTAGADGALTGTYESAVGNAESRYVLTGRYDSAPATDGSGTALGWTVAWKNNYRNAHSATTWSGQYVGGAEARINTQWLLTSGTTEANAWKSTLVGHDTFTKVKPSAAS

## MK phage (control, no displayed domain)
[1]
  percent of total phage recovered in elution buffer, 2 µl IAT: < 1%
  percent of total phage recovered in elution buffer, 5 µl IAT: < 1%
  percent of total phage recovered in elution buffer, 10 µl IAT: < 1%
[2]
  percent of total phage recovered in elution buffer, 5 µl IS: < 1%
[3]
  percent residual titer, 1 h, 2 µl IAT: 97%
  percent residual titer, 1 h, 5 µl IAT: 110%
  percent residual titer, 1 h, 10 µl IAT: 99%
  percent residual titer, 2 h, 2 µl IAT: 103%
  percent residual titer, 2 h, 5 µl IAT: 111%
  percent residual titer, 2 h, 10 µl IAT: 93%
  percent residual titer, 4 h, 2 µl IAT: 95%
  percent residual titer, 4 h, 5 µl IAT: 96%
  percent residual titer, 4 h, 10 µl IAT: 106%
[4]
  percent residual titer, 1 h, 5 µl IS: 106%
  percent residual titer, 2 h, 5 µl IS: 96%
  percent residual titer, 4 h, 5 µl IS: 98%
[5]
  percent of input phage recovered, CBS pH 6.5: 0.00028%
  percent of input phage recovered, TBS pH 7.5: 0.00034%
  total pfu recovered in elution buffer, CBS pH 6.5: 1.35e+06 pfu
  total pfu recovered in elution buffer, TBS pH 7.5: 1.48e+06 pfu

## M13mp18 phage (wild type control, non-display phage)
[6]
  eluted phage, % of input: 0.0005 % of input
  relative binding (to M13MP18): 1 fold
[7]
  eluted phage, % of input: 0.0003 % of input
  relative binding (to M13MP18): 1 fold
[8]
  % of input pfu left, +NRS +Protein A: 88 % of input
[9]
  binding relative to M13mp18: 1 fold
  eluted phage, % of input: 0.3 % of input
Protein A-agarose beads
  % of input pfu left, +Protein A: 72 % of input
[10]
  eluted phage, % of input: 0.00023 % of input
  relative binding (to M13MP18): 1 fold
[11]
  eluted phage, % of input: 0.1 % of input
  relative binding (to M13MP18): 1 fold
[12]
  % of input pfu left, +NRS: 104 % of input
[13]
  binding relative to M13MP18: 1 fold
  eluted phage, % of input: 0.2 % of input

B1: MA-ITI-E7 phage (ITI-DI-III fusion with the EpiNE-7 changes around the P1 position) (designed binder)
chain: KEDSCQLGYSAGPCVAMFPRYFYNGTSMACETFQYGGCMGNGNNFVTEKECLQTCRGAAETVESCLAKPHTENSFTNVWKDDKTLDRYANYEGCLWNATGVVVCTGDETQCYGTWVPIGLAIPENEGGGSEGGGSEGGGSEGGGTKPPEYGDTPIPGYTYINPLDGTYPPGTEQNPANPNPSLEESQPLNTFMFQNNRFRNRQGALTVYTGTVTQGTDPVKTYYQYTPVSSKAMYDAYWNGKFRDCAFHSGFNEDPFVCEYQGQSSDLPQPPVNAGGGSGGGSGGGSEGGGSEGGGSEGGGSEGGGSGGGSGSGDFDYEKMANANKGAMTENADENALQSDAKGKLDSVATDYGAAIDGFIGDVSGLANGNGATGDFAGSNSQMAQVGDGDNSPLMNNFRQYLPSLPQSVECRPFVFSAGKPYEFSIDCDKINLFRGVFAFLLYVATFMYVFSTFANILRNKES
[14]
  fold lower total fraction eluted than EpiNE-7 phage: ~40 fold
[15]
  fold lower total fraction eluted than EpiNE-7 phage: 40 fold
  fold total fraction eluted against MA-ITI phage: 10 fold
